Measurements from patent US20190241654A1 (published 2019).
“And” between values parts separate entries of the source, which are not always exact repeats. Identical values can stand only once.

B1: Ab356/Ab1129 (HC Ab356, LC Ab1129) anti-CD47 antibody (antibody, V domains shown)
VH: QMQLVQSGAEVKKPGSSVKVSCKASGFNIKDYYLHWVRQAPGKGLEWMGWIDPDQGDTEYAQKFQGRVTITRDRSTSTAYMELRSLRAEDTAVYYCNAAYGSSSYPMDYWGQGTTVTVSS
VL: NIQMTQSPSSLSASVGDRVTITCRASQDIHRYLSWFQQKPGKVPKHLIYRHIRFVDGVPSRFSGSGSGTEFTLTISSLQPEDFATYYCLQYDEFPYTFGGGTKVEIK
notes: FR and CDR L2 variant of AbParental; The label order is HC/LC although the head says 'LC/HC'; r466 is used
B2: Ab1119/Ab480 (antibody, V domains shown)
VH: QMQLVQSGAEVKKPGSSVKVSCKASGFNIKDYYLHWVRQAPGKGLEWMGWIDPDQGDTEYAQKFQGRVTITRDRSTSTAYMELRSLRAEDTAVYYCNAAYGSSSYPMDYWGQGTLVTVSS
VL: NIQMTQSPSSLSASVGDRVTITCRASQDIHRYLSWFQQKPGKVPKHLIYRANRLVSGVPSRFSGSGSGTEFTLTISSLQPEDFATYYCLQYDEFPYTFGGGTKVEIK
notes: Variant of AbParental; also called LC Ab1119 / HC Ab480
B3: AbParental (parental anti-CD47 antibody) (antibody, human IgG4 S228P, kappa, V domains shown)
VH: QMQLVQSGAEVKKTGSSVKVSCKASGFNIKDYYLHWVRQAPGQALEWMGWIDPDQGDTEYAQKFQDRVTITRDRSMSTAYMELSSLRSEDTAMYYCNAAYGSSSYPMDYWGQGTTVTVSS
VL: NIQMTQSPSAMSASVGDRVTITCKASQDIHRYLSWFQQKPGKVPKHLIYRANRLVSGVPSRFSGSGSGTEFTLTISSLQPEDFATYYCLQYDEFPYTFGGGTKVEIKR
notes: also called Parental LC-HC; parental antibody
B4: Ab482/Ab387 (antibody, V domains shown)
VH: QMQLVQSGAEVKKPGSSVKVSCKASGFNIKDYYLHWVRQAPGKGLEWMGWIDPDQGDTEYAQKFQGRVTITRDRSTSTAYMELRSLRSEDTAVYYCNAAYGSSSYPMDYWGQGTLVTVSS
VL: NIQMTQSPSSMSASVGDRVTITCKASQDIHRYLSWFQQKPGKVPKHLIYRANRLVSGVPSRFSGSGSGTEFTLTISSLQPEDFATYYCLQYDEFPYTFGGGTKVEIK
notes: FR variant of AbParental; also called LC Ab482 / HC Ab387
B5: Ab356/Ab1127 (antibody, V domains shown)
VH: QMQLVQSGAEVKKPGSSVKVSCKASGFNIKDYYLHWVRQAPGKGLEWMGWIDPDQGDTEYAQKFQGRVTITRDRSTSTAYMELRSLRAEDTAVYYCNAAYGSSSYPMDYWGQGTTVTVSS
VL: NIQMTQSPSSLSASVGDRVTITCRASQDIHRYLSWFQQKPGKVPKHLIYRESRFVDGVPSRFSGSGSGTEFTLTISSLQPEDFATYYCLQYDEFPYTFGGGTKVEIK
notes: FR and CDR L2 variant; Label printed HC first; r460 used; also called HC Ab356 / LC Ab1127
B6: Ab1119/Ab356 (antibody, V domains shown)
VH: QMQLVQSGAEVKKPGSSVKVSCKASGFNIKDYYLHWVRQAPGKGLEWMGWIDPDQGDTEYAQKFQGRVTITRDRSTSTAYMELRSLRAEDTAVYYCNAAYGSSSYPMDYWGQGTTVTVSS
VL: NIQMTQSPSSLSASVGDRVTITCRASQDIHRYLSWFQQKPGKVPKHLIYRANRLVSGVPSRFSGSGSGTEFTLTISSLQPEDFATYYCLQYDEFPYTFGGGTKVEIK
notes: Variant of AbParental; also called LC Ab1119 / HC Ab356
B7: Ab480/Ab1120 (antibody, V domains shown)
VH: QMQLVQSGAEVKKPGSSVKVSCKASGFNIKDYYLHWVRQAPGKGLEWMGWIDPDQGDTEYAQKFQGRVTITRDRSTSTAYMELRSLRAEDTAVYYCNAAYGSSSYPMDYWGQGTLVTVSS
VL: NIQMTQSPSSLSASVGDRVTITCRASQDIHRYLSWFQQKPGKVPKHLIYRYVRFVDGVPSRFSGSGSGTEFTLTISSLQPEDFATYYCLQYDEFPYTFGGGTKVEIK
notes: FR and CDR L2 variant; Label printed HC first although the head says LC/HC; also called HC Ab480 / LC Ab1120
B8: Ab480/Ab1122 (antibody, V domains shown)
VH: QMQLVQSGAEVKKPGSSVKVSCKASGFNIKDYYLHWVRQAPGKGLEWMGWIDPDQGDTEYAQKFQGRVTITRDRSTSTAYMELRSLRAEDTAVYYCNAAYGSSSYPMDYWGQGTLVTVSS
VL: NIQMTQSPSSLSASVGDRVTITCRASQDIHRYLSWFQQKPGKVPKHLIYRYERFVDGVPSRFSGSGSGTEFTLTISSLQPEDFATYYCLQYDEFPYTFGGGTKVEIK
notes: FR and CDR L2 variant; Label printed HC first; r445 used; also called HC Ab480 / LC Ab1122

These binders were tested against T1, CD47 on CCRF-CEM cells (human, UniProt Q08722 19-323) (assay: cell-based or functional assay).
T1 sequence (Q08722 19-323): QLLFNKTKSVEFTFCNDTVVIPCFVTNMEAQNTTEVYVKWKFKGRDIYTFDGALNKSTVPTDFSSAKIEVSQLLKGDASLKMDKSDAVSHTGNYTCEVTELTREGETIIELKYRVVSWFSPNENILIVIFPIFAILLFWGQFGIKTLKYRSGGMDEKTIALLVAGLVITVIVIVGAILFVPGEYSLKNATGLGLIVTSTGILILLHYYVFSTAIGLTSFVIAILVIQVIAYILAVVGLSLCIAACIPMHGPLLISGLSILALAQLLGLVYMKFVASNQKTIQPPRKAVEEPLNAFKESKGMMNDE

For B1, the “Phagocytosis EC50 (ug/mL), Donor 1” value was 12.8 µg/mL.

The binders below were run against T2, recombinant extracellular domain of CD47 (UniProt Q08722 19-139, limits assumed) (assay: SPR; antibody captured on anti-human Fc, CD47-ECD flowed 0-100 nM; 1:1 Langmuir).
T2 construct: extracellular domain; Analyte flowed over the captured antibodies in SPR; also called CD47-ECD
T2 sequence (Q08722 19-139 limits assumed): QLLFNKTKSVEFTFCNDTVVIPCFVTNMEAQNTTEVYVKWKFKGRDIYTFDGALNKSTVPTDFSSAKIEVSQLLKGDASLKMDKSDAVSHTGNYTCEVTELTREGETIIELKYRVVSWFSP
Description: The binding kinetics of anti-CD47 antibodies to the recombinant extracellular domain of CD47 were determined by using surface Plasmon resonance (SPR, MASS-1, Sierra Sensors; T200, Biacore, GE Healthcare Life Sciences). Anti-human Fc (P/N: BR-1008-39 (GE Healthcare Life Sciences)) was immobilized on a High Capacity Amine chip (P/N: SPR-AS-HCA, Sierra sensors) or CM5-S Chip (GE Healthcare Life Sciences). CD47 antibodies were captured on Human IgG FC and CD47-ECD was flowed over the surface at various concentrations ranging from zero (for double referencing) to 100 nM. In order to determine KD's, antibodies were ranked using a 1:1 Langmuir model.

Compared with B2, B3 is 2.4-fold lower in Kd: 0.564 nM for the first, 0.236 nM for the second. The second binds more tightly here.

Compared with B4, B5 is 8.6-fold higher in Kd: 0.553 nM for the first, 4.76 nM for the second. The first binds more tightly here.

First: B7
Second: B8
The Kd of the first is 4.5-fold lower: 1.05 nM for the first, 4.68 nM for the second.

Compared with B2, B3 is 3.1-fold lower in koff: 0.00577 s⁻¹ for the first, 0.00187 s⁻¹ for the second.

Going from B4 to B5, the koff rises from 0.00549 s⁻¹ to 0.0106 s⁻¹ (1.9-fold).

Going from B7 to B8, the koff rises from 0.00238 s⁻¹ to 0.0109 s⁻¹ (4.6-fold).

B2 and B3 are within 1.5-fold of each other in kon: 1.02e+07 M⁻¹ s⁻¹ for the first, 7.94e+06 M⁻¹ s⁻¹ for the second.

Going from B4 to B5, the kon falls from 9.93e+06 M⁻¹ s⁻¹ to 2.22e+06 M⁻¹ s⁻¹ (4.5-fold).

B7 and B8 are within 1.5-fold of each other in kon: 2.28e+06 M⁻¹ s⁻¹ for the first, 2.33e+06 M⁻¹ s⁻¹ for the second.

With B6 the Kd was 0.635 nM and 0.599 nM.

For B6, the koff was 0.00647 s⁻¹ and 0.0059 s⁻¹.

B6 was tested, and the kon was 1.02e+07 M⁻¹ s⁻¹ and 9.85e+06 M⁻¹ s⁻¹.

The binders below were run against T1, CD47 on CCRF-CEM cells (assay: flow cytometry on antibody-opsonized CCRF-CEM cells, anti-human Alexa 647 secondary, median fluorescence, sigmoidal fit; Donor 1).
Description: Phagocytosis was assayed by serum starving the macrophages in incomplete AIM V media for two hours. During this incubation period, target cells (CCRF-CEM) from two donors (donor 1 and donor 2) were labeled with CSFE (Invitrogen, #C34554) at […] for 15 minutes at room temperature. Cells were rinsed twice with PBS (Hyclone, #SH30028.02) and resuspended at 8×10⁵/mL in AIM V media. Antibody dilutions were prepared at 0.01 ug/ml to 10 ug/ml in half log dilutions and then incubated with the target cell line for 10 minutes at room temperature (a small portion is retained for flow cytometric analysis/cell binding), after which 100 μL of target cell/antibody suspension was added to the macrophage plates. Samples were treated in triplicate and with appropriate isotype controls.
Samples were incubated for 30 minutes at room temperature, rinsed 2× and then resuspended in FACS buffer and analyzed on the Attune. The EC50 values refer to the concentration that gives half the maximum binding measured as median fluorescent intensity, and was determined by non-linear fit of a sigmoidal dose response within the GraphPad Prism software.

In the case of B1, the EC50 is reported as 0.16 µg/mL.
